Data on 8 molecules can be found in patent publication US20260250421A1 (BIOCYTOGEN PHARMACEUTICALS BEIJING, published 2026).

In assay [1] the target is T1, human PTK7 on human cancer cell lines (human, UniProt Q13308 31-1070).
T1 construct: Endogenous PTK7 of human tumour cell lines; also called PTK7 on A-431, NCI-H520, NCI-N87, SK-OV-3, BT-20, HCC1954, NCI-H226, NCI-H358, HCT116, PC-3, NCI-H292, NCI-H1975 cells
T1 sequence: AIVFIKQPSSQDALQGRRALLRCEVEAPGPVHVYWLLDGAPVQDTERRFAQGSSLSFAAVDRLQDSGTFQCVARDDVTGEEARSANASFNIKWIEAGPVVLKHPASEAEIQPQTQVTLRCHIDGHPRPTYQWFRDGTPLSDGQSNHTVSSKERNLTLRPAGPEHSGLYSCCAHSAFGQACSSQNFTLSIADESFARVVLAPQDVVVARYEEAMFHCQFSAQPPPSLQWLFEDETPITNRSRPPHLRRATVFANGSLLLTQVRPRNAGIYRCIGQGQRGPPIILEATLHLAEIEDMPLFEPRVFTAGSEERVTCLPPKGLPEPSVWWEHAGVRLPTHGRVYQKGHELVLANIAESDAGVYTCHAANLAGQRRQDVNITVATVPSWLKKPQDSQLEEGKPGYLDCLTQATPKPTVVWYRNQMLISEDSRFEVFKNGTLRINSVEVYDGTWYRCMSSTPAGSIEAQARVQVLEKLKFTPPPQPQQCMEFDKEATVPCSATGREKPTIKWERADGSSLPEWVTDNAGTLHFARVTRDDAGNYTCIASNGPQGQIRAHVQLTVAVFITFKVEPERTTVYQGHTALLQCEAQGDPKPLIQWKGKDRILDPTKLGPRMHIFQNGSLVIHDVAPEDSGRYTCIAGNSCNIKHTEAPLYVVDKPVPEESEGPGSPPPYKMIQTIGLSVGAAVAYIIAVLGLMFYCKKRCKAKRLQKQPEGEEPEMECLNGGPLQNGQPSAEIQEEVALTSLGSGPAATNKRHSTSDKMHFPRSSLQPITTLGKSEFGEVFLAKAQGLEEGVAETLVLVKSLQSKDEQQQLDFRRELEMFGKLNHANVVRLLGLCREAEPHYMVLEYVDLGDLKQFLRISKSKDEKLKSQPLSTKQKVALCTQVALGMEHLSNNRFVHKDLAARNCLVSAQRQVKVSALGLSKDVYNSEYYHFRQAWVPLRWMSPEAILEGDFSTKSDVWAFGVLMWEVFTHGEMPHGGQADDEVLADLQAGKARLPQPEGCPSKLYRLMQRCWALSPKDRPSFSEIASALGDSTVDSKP
The assay can be described thus: flow cytometry, NCI-H358 cells, Ab 5 ug/mL. As for the experimental part: (§1) The binding activity of anti-PTK7 antibodies to cancer cell lines was verified by flow cytometry. […] Purified anti-PTK7 antibody with a concentration of 5 μg/mL was added to each well and was incubated at 4° C. for 30 minutes. […] The cells were collected, and the mean fluorescence intensity (MFI) was determined. Human IgG1 was used as ISO control.

Assay [2] addresses T1, human PTK7 on human cancer cell lines. Description: flow cytometry, HCC1954 cells, Ab 5 ug/mL. As for the experimental part: as §1
In general terms: Flow cytometry measures light scatter and fluorescence of single cells or particles in a stream.

Assay [3] deals with T2, His-tagged human PTK7 protein (human, UniProt Q13308 31-704).
T2 construct: Bought protein; also called hPTK7-His; not shown: His tag
T2 sequence: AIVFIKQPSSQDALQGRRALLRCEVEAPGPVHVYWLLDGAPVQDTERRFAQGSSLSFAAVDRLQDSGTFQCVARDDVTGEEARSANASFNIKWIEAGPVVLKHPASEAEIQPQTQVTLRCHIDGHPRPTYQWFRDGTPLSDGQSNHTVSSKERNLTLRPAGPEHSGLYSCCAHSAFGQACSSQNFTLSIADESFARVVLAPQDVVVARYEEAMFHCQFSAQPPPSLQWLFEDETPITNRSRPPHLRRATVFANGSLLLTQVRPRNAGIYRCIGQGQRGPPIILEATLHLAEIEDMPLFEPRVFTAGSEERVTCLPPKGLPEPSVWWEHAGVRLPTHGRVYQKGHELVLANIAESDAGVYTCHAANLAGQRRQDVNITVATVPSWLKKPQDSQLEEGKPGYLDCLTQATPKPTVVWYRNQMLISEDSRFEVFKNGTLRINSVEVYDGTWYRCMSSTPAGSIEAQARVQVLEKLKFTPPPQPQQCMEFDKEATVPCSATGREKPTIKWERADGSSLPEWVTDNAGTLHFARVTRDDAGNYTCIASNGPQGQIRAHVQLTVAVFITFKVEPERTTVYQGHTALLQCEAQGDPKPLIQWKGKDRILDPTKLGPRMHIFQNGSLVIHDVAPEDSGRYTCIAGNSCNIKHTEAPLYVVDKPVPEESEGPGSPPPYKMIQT
The assay can be described thus: BLI Octet binning on hPTK7-His; competitor 1A11. Here is the method:
(§2) Relative positions of target protein epitope between a pair of purified anti-PTK7 antibodies were analyzed by Biolayer Interferometry (BLI) using ForteBio Octet system at 30° C. A total of […] purified antibodies were used: 1A7, 1A11, 1F2, 2A5, 2D11, 2F5, 3C4 and 3E6.
(§3) 1×HBS-EP+ buffer (10 mM 4-(2-hydroxyethyl)-1-piperazineethanesulfonic acid (HEPES), 150 mM NaCl, 3 mM ethylenediaminetetraacetic acid (EDTA) and 0.05% P20, pH7.4) diluted from HBS-EP+ buffer (10×) was used as the running buffer throughout the experiment. His-tagged human PTK7 protein was captured at a flow rate of 10 μL/min, and 200 nM of antibody (Analyte 1) was injected at a flow rate of 30 μL/min to bind the ligand. Another antibody (Analyte 2) was injected under the same conditions to determine whether the binding of different antibodies interfered with each other. The binding time was 300 s for each antibody.
(§4) The binding value of each antibody was obtained using Data Analysis HT 12.0. To quantify the interference of one antibody binding to another, a binding ratio was calculated to compare each pair of antibodies. The binding ratio is defined as the binding value of the second antibody (Analyte 2), divided by the binding value of the first antibody (Analyte 1). […] In general, antibody pairs that interfere with each other have the same or overlapping epitopes.

In assay [4] the target is T1, human PTK7 on human cancer cell lines. The assay can be described thus: flow cytometry, NCI-N87 cells, Ab 5 ug/mL. As for the experimental part:
as §1

In assay [5] the target is T2, His-tagged human PTK7 protein. The assay can be described thus: BLI Octet binning on hPTK7-His; competitor hu24 analog. Here is the method:
as §2, §3, §4
A general note: BLI is a label-free optical method that tracks binding on a fibre tip over time.

The target is the same in assay [6]. Description: BLI Octet binning on hPTK7-His; competitor 3E6. As for the experimental part:
as §2, §3, §4

In assay [7] the target is T1, human PTK7 on human cancer cell lines. The assay can be described thus: flow cytometry, A-431 cells, Ab 5 ug/mL. As for the experimental part: as §1

B1: 3C4 (antibody, V domains shown)
VH: QVQLEQSRAEVKKPGESLRISCKGSGYSFTSYWISWVRQMPGKGLEWMGRIDPSDSYTNYNPSFQGHVTISADKSISTAYLQWSSLKASDTAMYYCARRDGSYFDFDYWGQGTLVTVSS
VL: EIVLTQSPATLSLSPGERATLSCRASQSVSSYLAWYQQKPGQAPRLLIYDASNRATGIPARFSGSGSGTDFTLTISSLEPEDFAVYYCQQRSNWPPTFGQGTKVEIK
notes: also called anti-PTK7 antibody 3C4
As for B1, the MFI in assay [1] amounted to 98800; in assay [2], 187000; in assay [4], 139000; in assay [7], 186000. The binding ratio in assay [3] is 0.84; in assay [5] it was 1.22; in assay [6], 0.17.

B2: 3E6 (antibody, V domains shown)
VH: QVQLVESGAEVKKPGESLRISCRGSGYSFTSYWISWVRQMPGKGLEWMGRIDPSDSYTKYSPSFQGHVTISADKSISTAYLQWSSLKASDTAMYYCARRDGDYFDFDYWGQGTLVTVSS
VL: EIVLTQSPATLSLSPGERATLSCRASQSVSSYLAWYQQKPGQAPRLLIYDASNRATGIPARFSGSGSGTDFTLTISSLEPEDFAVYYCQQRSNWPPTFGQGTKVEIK
notes: also called anti-PTK7 antibody 3E6
Take B2: the MFI is 117000 in assay [1], 207000 in assay [2], 180000 in assay [4] and 289000 in assay [7]. Also, the binding ratio in assay [3] came out at 0.71; in assay [5], 0.98; in assay [6], 0.08.

B3: 1F2 (antibody, V domains shown)
VH: QVQLVQSGGGLVQPGGSLRLSCAASGFTFSRYEMNWVRQAPGKGLEWVSYINSIGSAINYADSVKGRFTISRDNAKNSLYLQMRSLRAEDTAVYYCVREDNWNPGYWGQGTLVTVSS
VL: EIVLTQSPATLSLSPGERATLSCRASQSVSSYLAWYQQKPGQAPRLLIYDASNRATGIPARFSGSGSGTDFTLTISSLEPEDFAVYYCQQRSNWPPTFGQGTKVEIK
notes: also called anti-PTK7 antibody 1F2
As to B3, the MFI in assay [1] is 33900; in assay [2] it was 99100; in assay [4] it was 108000; in assay [7], 156000. The binding ratio in assay [3] was 0.64; in assay [5], 0.95; in assay [6] it was 0.75.

B4: 1A7 (antibody, human IgG1, V domains shown)
VH: QVQLVESGGGVVQPGRSLRLSCAASGFTFSNYGMHWVRQAPGKGLEWVAVIYYDGSNKFYADSVKGRFTISRDNSKNTLYLQMSSLRAEDTAVYYCARDVAPPGSRAEYFHHWGQGTLVTVSS
VL: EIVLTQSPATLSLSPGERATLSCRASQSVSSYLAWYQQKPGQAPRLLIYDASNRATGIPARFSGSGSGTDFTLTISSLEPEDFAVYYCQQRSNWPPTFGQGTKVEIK
notes: also called anti-PTK7 antibody 1A7
B4: the MFI amounted to 52900 in assay [1], 118000 in assay [2], 75700 in assay [4] and 91100 in assay [7]. Further, the binding ratio was found to be 0.74 in assay [3], 0.2 in assay [5] and 1.05 in assay [6].

B5: 2D11 (antibody, V domains shown)
VH: QVQLVESGGGVVQPGRSLRLSCAASGFTFSSYGMHWVRQAPGKGLEWVAVIFYDGSNKYYADSVKGRFTISRDNSKNTLYLQMNSLRAEDTSVYYCARDVAAPGSRAEYFQNWGQGTLVTVSS
VL: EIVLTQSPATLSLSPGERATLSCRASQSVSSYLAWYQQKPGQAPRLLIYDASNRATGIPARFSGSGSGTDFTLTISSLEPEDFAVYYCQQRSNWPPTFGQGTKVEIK
notes: also called anti-PTK7 antibody 2D11
As for B5, the MFI in assay [1] was found to be 103000; in assay [2], 211000; in assay [4] it was 217000; in assay [7] it was 295000. The results for the binding ratio in assay [3], in assay [5] and in assay [6] were 0.83, 0.21 and 1.18, respectively.

B6: 2F5 (antibody, V domains shown)
VH: QVQLVESGGGVVQPGRSLRLSCVASGFTFSNYGMHWVRQAPGKGLEWVAIIYYDGSNKYYADSVKGRFTISRDNSKNTLYLQMNSLRAEDTAVYYCARDVAAAGSRAEYLHHWGQGTLVTVSS
VL: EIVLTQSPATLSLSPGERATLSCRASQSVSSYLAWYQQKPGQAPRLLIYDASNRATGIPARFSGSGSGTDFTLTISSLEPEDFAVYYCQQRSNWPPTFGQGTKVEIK
notes: also called anti-PTK7 antibody 2F5
As to B6, the MFI amounted to 51900 in assay [1], 121000 in assay [2], 69400 in assay [4] and 106000 in assay [7]. Also, the binding ratio in assay [3] was 0.71; in assay [5], 0.19; in assay [6] it was 1.02.

B7: 2A5 (antibody, V domains shown)
VH: QVQLVQSGGGVVQPGRSLRLSCAASGFTFSNYGMHWVRQAPGKGLEWVAVIWYDGRNKYYADSVKGRFTISRDNSKNTLYLQMNSLRAEDTAVYYCARDVAPAGSRAEYFQNWGQGTLVTVSS
VL: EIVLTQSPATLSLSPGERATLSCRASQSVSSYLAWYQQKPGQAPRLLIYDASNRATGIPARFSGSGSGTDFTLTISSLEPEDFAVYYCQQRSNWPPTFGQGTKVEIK
notes: also called anti-PTK7 antibody 2A5
For the molecule B7, the MFI was found to be 87700 in assay [1], 179000 in assay [2], 152000 in assay [4] and 173000 in assay [7]. Besides, the binding ratio in assay [3] is 0.62; in assay [5], 0.04; in assay [6], 0.94.

B8: 1A11 (antibody, V domains shown)
VH: QVQLVQSGPGLVKPSETLSLTCTVSGGSINSYYWNWIRQPPGKGLEWIGYIYYSGSTNYNPSLKSRVTISVDTSKNQFSLKLSSVTAADTAVYYCARDPHDYIRGHFDLWGRGTLFTVSS
VL: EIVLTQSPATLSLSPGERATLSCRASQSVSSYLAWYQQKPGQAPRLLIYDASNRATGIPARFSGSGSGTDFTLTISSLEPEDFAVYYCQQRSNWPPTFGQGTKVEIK
notes: also called anti-PTK7 antibody 1A11
With B8, the MFI in assay [1] worked out at 89400; in assay [2], 172000; in assay [4], 158000; in assay [7] it was 247000. Also, the binding ratio was -0.01 in assay [3], 0.97 in assay [5] and 0.94 in assay [6].
